Source: patent US20180022822A1, “NOVEL ANTI-FIBROBLAST ACTIVATION PROTEIN (FAP) BINDING AGENTS AND USES THEREOF” (Mabimmune Diagnostics AG, priority 2016, published 2018)

How the values were obtained:
[1] = molecular target: T1, rhFAP and FAP SB9 oligopeptidase homologues (rhDPPIV, rhPOP/PREP, rhDPP8, rhDPP9) (Homo sapiens, UniProt Q12884); assay: ELISA binding to SB9 oligopeptidase family enzymes; conditions: sandwich ELISA affinity (EC50) assays
T1 construct: purchased Sino Biologicals 10464-H07H
T1 sequence (Q12884 26-760 limits assumed): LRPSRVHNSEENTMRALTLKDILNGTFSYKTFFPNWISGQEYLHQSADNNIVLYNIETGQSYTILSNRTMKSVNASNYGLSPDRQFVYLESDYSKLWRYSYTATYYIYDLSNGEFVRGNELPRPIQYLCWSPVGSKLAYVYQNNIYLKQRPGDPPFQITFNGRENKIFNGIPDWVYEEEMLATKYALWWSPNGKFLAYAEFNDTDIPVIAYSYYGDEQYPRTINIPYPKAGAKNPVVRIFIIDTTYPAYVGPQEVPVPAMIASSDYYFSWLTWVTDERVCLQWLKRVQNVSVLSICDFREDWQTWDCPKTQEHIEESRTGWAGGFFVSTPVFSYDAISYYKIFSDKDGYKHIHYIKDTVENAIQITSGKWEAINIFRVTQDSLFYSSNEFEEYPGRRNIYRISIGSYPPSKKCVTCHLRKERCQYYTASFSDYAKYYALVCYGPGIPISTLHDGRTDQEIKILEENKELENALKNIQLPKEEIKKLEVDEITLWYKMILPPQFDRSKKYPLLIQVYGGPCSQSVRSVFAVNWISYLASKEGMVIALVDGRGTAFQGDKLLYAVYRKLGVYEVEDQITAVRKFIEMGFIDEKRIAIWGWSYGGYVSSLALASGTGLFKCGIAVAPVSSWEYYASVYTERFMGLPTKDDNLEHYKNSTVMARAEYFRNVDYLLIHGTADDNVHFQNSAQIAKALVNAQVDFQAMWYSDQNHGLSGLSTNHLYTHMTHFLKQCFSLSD
Procedure: To determine the binding efficiency and inhibitory ability of NI-206.82C2 against other members of the SB9 oligopeptidase family that have sequence similarity to FAP, indirect ELISA and inihibiton assays were performed on active enzyme targets. Active recombinant human enzymes evaluated in this assay include: Fibroblast Activation Protein (FAP; Sino Biologicals, 10464-H07H), Dipeptidyl Peptidase IV (DPPIV, BPS Bioscience 80040), Dipeptidyl Peptidase 8 (DPP8, BPS Bioscience 80080), Dipeptidyl Peptidase 9 (DPP9, BPS Bioscience 80080), and Prolyl Oligopeptidase/Prolyl Endopeptidase (POP/PREP, BPS Bioscience 80105). Each recombinant peptidase was expressed with a purification tag, and attached to the 96 well ELISA plate using either a mouse anti-Histidine antibody (CloneTech), or a mouse anti-Glutathione S-transferase (GST, Sino Biologicals, 111213-MM02) tag antibody. Each enzyme was validated to bind and remained active on the ELISA plate using enzyme specific fluorogenic substrates. H-Gly-Pro-AMC (ATT Bioquest, 13450) was used to validate the presence and activity of DPP4, DPP9, and DPP8. […] Following a washing step, bound antibody was detected using 3,3′,5,5′-Tetramethylbenzidine (TMB) substrate. The reaction was stopped after 10 minutes by adding 2N H2SO4 and the resulting change in optical density was quantified using an ELISA plate reader at […] absorbance (FIG. 7 E).

FAP in human plasma = molecular target: T2, FAP in human plasma (Homo sapiens, UniProt Q12884); assay: immunoprecipitation of FAP from human plasma, α2AP-AMC cleavage; type: biochemical; conditions: compared to plasma before immunoprecipitation
T2 construct: from tissue; host or cells: human blood plasma
T2 sequence (Q12884 24-760 limits assumed): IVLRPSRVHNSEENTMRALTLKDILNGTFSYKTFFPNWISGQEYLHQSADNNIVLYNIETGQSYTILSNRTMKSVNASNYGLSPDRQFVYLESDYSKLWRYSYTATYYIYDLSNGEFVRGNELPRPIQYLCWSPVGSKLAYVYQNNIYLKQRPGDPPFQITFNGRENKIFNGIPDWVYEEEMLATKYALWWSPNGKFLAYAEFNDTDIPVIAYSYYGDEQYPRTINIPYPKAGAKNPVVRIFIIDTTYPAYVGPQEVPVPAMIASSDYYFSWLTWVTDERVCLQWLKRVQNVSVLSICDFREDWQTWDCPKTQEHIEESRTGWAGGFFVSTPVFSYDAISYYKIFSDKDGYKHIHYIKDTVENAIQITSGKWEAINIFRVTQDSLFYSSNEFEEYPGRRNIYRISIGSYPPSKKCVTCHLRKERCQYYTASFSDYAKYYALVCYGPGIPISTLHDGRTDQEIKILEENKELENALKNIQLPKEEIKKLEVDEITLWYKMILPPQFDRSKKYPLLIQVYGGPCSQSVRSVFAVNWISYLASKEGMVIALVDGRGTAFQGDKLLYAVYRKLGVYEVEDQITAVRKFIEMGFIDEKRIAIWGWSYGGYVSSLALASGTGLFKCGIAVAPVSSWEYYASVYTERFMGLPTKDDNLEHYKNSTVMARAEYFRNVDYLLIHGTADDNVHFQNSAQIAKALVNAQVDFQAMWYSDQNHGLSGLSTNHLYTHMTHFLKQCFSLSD
Procedure: 100 μL of PureProteome G Magnetic Beads (Millipore LSKMAGG02) were suspended in 500 μL of 25 mM TRIS, 0.15M NaCl, and 0.1% Tween 20. Human plasma was diluted 1:5 in PBS to an end volume of 125 μL, separated into four tubes, and incubated for 30 min at RT with rotation. Beads were then collected with a magnetic stand, and the pre-cleared supernatant was transferred to a new tube containing magnetic beads coated with 82C2, 43A11, or 3A1. Antibody-conjugated beads were incubated with the plasma dilution overnight at 4° C. while rotating. Beads were then collected with a magnetic stand and the supernatant was removed of analysis of α2AP-AMC cleavage activity. To determine α2AP-AMC activity in the supernatants, a half area black 96 well plate was blocked with sterile filtered 5% BSA at 37° C. for 1 h. Then 40 μL of PBS was added to all the wells, 5 μL of the supernatant solutions to the appropriate wells, and 5 μL of α2AP-AMC solution in methanol was added for a final assay concentration of 10 μM. The fluorescence intensity (cleaved AMC) was measured at 360 nm excitation and 460 nm emission every 3 min over a total time of 30 min and the reaction velocity was calculated using Graphpad Prism 6 software.

rate of α2AP-AMC cleavage in plasma after immunoprecipitation (FAP in human plasma): significantly reduces
B1: NI-206.82C2: human-derived recombinant anti-FAP antibody; VH SEQ ID NO: 2 or 4 (PIMC), VL SEQ ID NO: 6 (antibody, V domains shown)
VH: QVQLQQSGPGLVKPSQTLSLTCAISGDSVSSNSVTWNWIRQSPSRGLEWLGRTYYRSKWYNDYAVSVKGRITINPDTSKNQFYLQLKSVTPEDAAVYYCARDSSILYGDYWGQGTLVTVSS
VL: QAVLTQPSSLSASPGASASLTCTLPSGINVGTYRIFWFQQKPGSPPQYLLSYKSDSDNHQGSGVPSRFSGSKDASANAGILLISGLQSEDEADYYCMIWHSSAWVFGGGTKLTVL
binding selectivity for rhFAP over SB9 oligopeptidase homologues [1]: selectively binds to recombinant human FAP (rhFAP) but not FAP SB9 oligopeptidase homologues
